Measurements as given in PMC11100747 (bioRxiv, 2024).

T1: Gdi1 (yeast, UniProt P39958 1-451)
T1 sequence: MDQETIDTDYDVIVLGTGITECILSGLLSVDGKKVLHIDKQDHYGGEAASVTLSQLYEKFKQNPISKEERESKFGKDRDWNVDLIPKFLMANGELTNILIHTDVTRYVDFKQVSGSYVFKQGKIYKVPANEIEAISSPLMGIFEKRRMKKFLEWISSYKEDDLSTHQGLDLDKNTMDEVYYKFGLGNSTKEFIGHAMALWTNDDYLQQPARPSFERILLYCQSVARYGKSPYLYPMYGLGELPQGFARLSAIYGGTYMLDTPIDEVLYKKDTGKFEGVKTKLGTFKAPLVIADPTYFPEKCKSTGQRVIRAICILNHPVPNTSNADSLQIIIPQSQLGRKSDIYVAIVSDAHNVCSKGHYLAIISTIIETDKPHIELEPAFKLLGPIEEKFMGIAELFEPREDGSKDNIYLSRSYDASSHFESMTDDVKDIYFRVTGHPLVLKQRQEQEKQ

T2: Ric1 (S. cerevisiae, UniProt P40395 1-1056)
T2 sequence: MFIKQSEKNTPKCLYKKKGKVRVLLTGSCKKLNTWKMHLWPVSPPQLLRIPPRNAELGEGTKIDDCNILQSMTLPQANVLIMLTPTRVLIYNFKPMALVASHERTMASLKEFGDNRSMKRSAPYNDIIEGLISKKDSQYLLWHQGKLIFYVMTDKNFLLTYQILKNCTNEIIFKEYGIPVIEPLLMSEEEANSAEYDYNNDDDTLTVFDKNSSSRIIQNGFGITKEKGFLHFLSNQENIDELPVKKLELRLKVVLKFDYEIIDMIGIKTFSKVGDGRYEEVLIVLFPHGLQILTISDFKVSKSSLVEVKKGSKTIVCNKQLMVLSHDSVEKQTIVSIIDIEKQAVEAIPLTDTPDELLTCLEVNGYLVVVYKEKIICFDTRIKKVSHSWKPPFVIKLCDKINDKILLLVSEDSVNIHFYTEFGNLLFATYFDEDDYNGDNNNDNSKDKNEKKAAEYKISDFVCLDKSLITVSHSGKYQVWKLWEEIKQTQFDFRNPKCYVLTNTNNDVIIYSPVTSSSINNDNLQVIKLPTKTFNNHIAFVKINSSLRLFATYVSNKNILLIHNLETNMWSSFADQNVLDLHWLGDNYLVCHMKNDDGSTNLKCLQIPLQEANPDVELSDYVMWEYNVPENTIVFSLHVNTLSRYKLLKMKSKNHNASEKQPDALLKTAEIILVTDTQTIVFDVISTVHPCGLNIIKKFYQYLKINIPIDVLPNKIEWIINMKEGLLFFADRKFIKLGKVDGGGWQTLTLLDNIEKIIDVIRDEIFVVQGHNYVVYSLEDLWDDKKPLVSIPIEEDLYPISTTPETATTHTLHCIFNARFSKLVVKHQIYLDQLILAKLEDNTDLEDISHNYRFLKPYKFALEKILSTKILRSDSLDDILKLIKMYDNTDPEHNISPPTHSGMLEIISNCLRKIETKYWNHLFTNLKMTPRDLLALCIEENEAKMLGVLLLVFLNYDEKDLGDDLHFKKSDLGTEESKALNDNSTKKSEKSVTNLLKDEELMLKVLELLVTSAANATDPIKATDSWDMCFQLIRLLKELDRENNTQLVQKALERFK

B1: prenylated Rab6-mantGDP (natural protein)
chain: MSRSGKSLTKYKIVFLGEQGVGKTSLITRFMYDTFDDHYQATIGIDFLSKTMYLDDKTIRLQLWDTAGQERFRSLIPSYIRDSRVAIIVYDITKRKSFEYIDKWIEDVKNERGDENVILCIVGNKSDLSDERQISTEEGEKKAKLLGAKIFMETSTKAGYNVKALFKKIAKSLPEFQNSESTPLDSENANSANQNKPGVIDISTAEEQEQSACQC
modifications: C-terminal cysteines prenylated (geranylgeranyl)
B2: Rgp1 (natural protein)
chain: MRAHRIDTFLIRENIKLEIIHESNSYFGGEHISIAFRFKHLGSQHELFNYKEKLLTVDKAVEEKLEQQAKVQDDGEGTMENQTWSLKSLLGAFKRTGEPEESVDVDNMKMLNESKMLREKIQKQMYFHQPVTLISGYVQISGVFQYDSEVISESKFKQDEVKMVGLDIVPGHTTNSVLALEDGEHFKGKRNLTNYLNSDYTNVTNGLLFSESGSRGRTGTYNERTLMISNDTSIKTLPLLLIPQTLLFSEISLEPGEVRTFYFKSTKLPKDICPSYSSSKVASINYTLEVGADVLSDDNIEKFSNRVPITIAPYISSNAEQYTSRLDKPAIILKTGNIKELKPRLFTRKVSTASAVSFGRRKSSIIDIDSPLEDNEFVKRVKKNFIELVESNQNVSRDIDELIDLQMGVQFGKDEDSSDPEPNDSHFSNEMVTSAESSLRSDAVTKRRKSYSVRDNISNLEQKMWNDCSLVKSDENSNLLPQLINLQNAYQINRNNETMAKVSLSAPFYKTTDDINLVIELDPITTPLLKVTSLTVSLESFEIINPKYKTEGKGIGSKPKGNSVYEKHFICFDECKSVSVKLLPPRSPTNQITGQFKTDVFQHKWMIGLKFVIIAKTESITLDQFYEDKKGILFHSKENLEGEEFTCYVPIPILCTSEDFMGW

Legend:
Gdi1 = target: T1, Gdi1; experiment: SEC
Ric1 = target: T2, Ric1; experiment: cryo-EM structure

| Binder | binding result (Gdi1) | binding result (Ric1) |
| --- | --- | --- |
| B1 | binds | – |
| B2 | – | binds |
